Data taken from US20200308261 (published 2020).

Legend:
[1] = target: T1, human Aβ 11pE-42 (human); test: ELISA sandwich, up to 10 ng/mL
T1 chain: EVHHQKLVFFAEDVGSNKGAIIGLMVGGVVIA

[2] = target: T2, human Aβ 11pE-40 (human); test: ELISA sandwich, up to 10 ng/mL
T2 chain: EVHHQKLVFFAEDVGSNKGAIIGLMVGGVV

[3] = target: human Aβ 1-40 (human); test: ELISA sandwich, up to 10 ng/mL
[4] = target: human Aβ 1-42 (human); test: ELISA sandwich, up to 10 ng/mL
[5] = target: T3, rodent Aβ 3pE-40 (rodent); test: ELISA sandwich, up to 10 ng/mL
T3 chain: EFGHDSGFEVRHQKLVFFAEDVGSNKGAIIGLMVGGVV

[6] = target: human Aβ 1-40 (human); test: SPR up to 50 nM

Measured: binding result

B1: BAMB31 (antibody, V domains shown)
VH: EIQLQQSGPELVKPGTSVKVSCKASGHVFTSYDMYWVKQSHGKSLEWIGYIDSDNGDTSYNQKFKGKATLTVDKSSSTAYMHLNSLTSEDSAVYYCAYYRYAMDYWGQGTSVTVSS
VL: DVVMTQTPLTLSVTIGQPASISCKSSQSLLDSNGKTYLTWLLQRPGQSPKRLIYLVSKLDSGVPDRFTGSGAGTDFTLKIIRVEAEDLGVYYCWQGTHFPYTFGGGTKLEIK
not listed: [6]
no binding: all other assays above

B2: BAMB31_2a (mIgG2a) (antibody, V domains shown)
VH: B1 VH
VL: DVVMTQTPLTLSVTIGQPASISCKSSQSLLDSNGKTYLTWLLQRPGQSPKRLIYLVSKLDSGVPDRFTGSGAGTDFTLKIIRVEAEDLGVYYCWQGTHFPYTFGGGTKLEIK
no binding: [6]
